*1 amine or outer side, *2 acyl side, *3 side chain or, on linkers, in order; H or OH if unused. Primed or numbered codes have the meaning given here. Where no end group is shown, it is not given here. Side-chain parts run from the residue outwards. [ ]: non-standard residue; d: D form. The star is where a group is joined. PEG4′ = 4 PEG units (K(PEGxpalm): Lys with x PEG units and palmitoyl at epsilon N, C-terminal (PEG)4); γGlu = O=C(O)[C@H](CCC(=O)[*:2])N[*:1]; Palmitoyl = CCCCCCCCCCCCCCCC(=O)*; Aib = CC(C)(N)C(=O)O; PEG2′ = 2 PEG units
Tests used:
[1] = molecular target: human GLP-1 receptor (GLP-1R) (human, UniProt P43220 24-463); assay: cell-based or functional assay
[2] = molecular target: human glucagon receptor (GCGR) (human, UniProt P47871 26-477); assay: cell-based or functional assay
Chain of human glucagon receptor (GCGR) (P47871 26-477): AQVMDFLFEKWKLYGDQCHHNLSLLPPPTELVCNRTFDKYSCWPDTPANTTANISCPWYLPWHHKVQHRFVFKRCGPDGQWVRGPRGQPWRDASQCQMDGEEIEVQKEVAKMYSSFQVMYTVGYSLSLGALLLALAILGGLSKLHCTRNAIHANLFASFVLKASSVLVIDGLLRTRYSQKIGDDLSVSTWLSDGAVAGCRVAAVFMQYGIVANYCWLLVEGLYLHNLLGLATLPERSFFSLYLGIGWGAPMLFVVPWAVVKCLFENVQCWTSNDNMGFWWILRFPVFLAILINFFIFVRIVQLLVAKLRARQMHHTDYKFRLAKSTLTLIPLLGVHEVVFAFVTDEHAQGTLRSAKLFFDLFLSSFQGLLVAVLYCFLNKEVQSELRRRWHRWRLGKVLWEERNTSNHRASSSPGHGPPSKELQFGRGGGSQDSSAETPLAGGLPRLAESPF

| Binder | cAMP activity, GLP1 EC50 nM [1] | cAMP activity, Glcg EC50 nM [2] |
| --- | --- | --- |
| HSEGTFTSDYSKYLDSK([γGlu-Palmitoyl])RAQDFVQWLV[PEG4′] [g432] | 0.07 nM |  |
| HSQGTFTSDYSKYLDK([PEG4′-Palmitoyl])RRAQDFVQWEV[PEG4′] [g497] |  | 0.3 nM |
| HSQGTFTSDYSKYLDSXRAQDFVQWLV (K(gE-palm) at 17; C-terminal PEG4) [g414] | 0.2 nM |  |
| HSQGTFTSDYSEYLDSK([γGlu-Palmitoyl])RAADFVQWLV[PEG4′] (not fully specified; printed as HSQGTFTSDYSEYLDSBRAADFVQWLVZ4) [g775] |  | 0.08 nM |
| HGQGTFTSDYSKYLESK([PEG4′-Palmitoyl])RAQDFVQWLV[PEG4′] [g499] | 0.02 nM | 0.03 nM |
| HSQGTFTSDK([PEG4′-Palmitoyl])SKYLDSSRARDFVAWLV[PEG4′] [g971] |  | 0.007 nM |
| HSQGTFTSDYSEYLDSK([γGlu-Palmitoyl])RARDFVAWLV[PEG4′] [g784] | 0.3 nM |  |
| HSQGTFTSDYSKYLDSRRAXDFVQWLV (K(gE-palm) at 20; C-terminal PEG4) [g456] |  | 0.07 nM |
| HGQGTFTSDYSRYLDSK([γGlu-Palmitoyl])RARDFVEWLV[PEG4′] [g719] | 0.09 nM |  |
| HSQGTFTSDYSKYLDSRAAQK([γGlu-Palmitoyl])FVQWLV[PEG4′] [g809] |  | 0.07 nM |
| HSQGTFTSDYSKYLDSRKAQDFVQWLE[PEG4′] (not fully specified (residue 18); printed as HSQGTFTSDYSKYLDSRB1AQDFVQWLEZ4) [g455] |  | 0.001 nM |
| HSQGTFTSDYSKYLDSXRAQDFVQWLE (not fully specified; K(PEG2-PEG2-gE-palm) at 17; C-terminal PEG4) [g966] |  | 0.001 nM |
| HSQGTFTSDYSKYLDSK([γGlu-Palmitoyl])RARDFVAWLV[PEG4′] [g800] | 0.09 nM |  |
| HSQGTFTSDYSXYLDSRRAQDFVQWLV (K(gE-palm) at 12; C-terminal PEG4) [g416] | 1 nM | 0.6 nM |
| HSQGTFTSDYSKYLDSK([PEG4′-Palmitoyl])RAQDFVQWEV[PEG4′] [g459] |  | 0.3 nM |
| HSQGTFTSDYSKYLDSXRAQDFVQWLV (not fully specified; K(PEG4-palm) at 17; C-terminal PEG3) [g436] | 0.01 nM | 0.002 nM |
| H[Aib]QGTFTSDYSKYK([γGlu-Palmitoyl])DSERARDFVAWLV[PEG4′] [g868] |  | 0.02 nM |
| H[Aib]QGTFTSDYSKYLDSK([PEG4′-γGlu-Palmitoyl])RARDFVAWLV[PEG4′] [g968] |  | 0.006 nM |
| HSQGTFTSDYSKK([PEG4′-Palmitoyl])LDSSRARDFVAWLV[PEG4′] [g970] |  | 0.003 nM |
| HXQGTFTSDYSKYLDSXRAQDFVQWLV (alpha-amino-iso-butyric acid (Aib) at 2; K(gE-palm) at 17; C-terminal PEG4) [g500] | 0.08 nM |  |
| HSQGTFTSDYSKYLDEK([γGlu-Palmitoyl])RAQDFVQWLV[PEG4′] [g810] | 0.5 nM | 0.03 nM |
| HSQGTFTSDYSKYLDSXRAQDFVQWLV (K(PEG3-palm) at 17; C-terminal PEG4) [g434] | 0.005 nM | 0.02 nM |
| HSQGTFTSDYSEYLDSK([γGlu-Palmitoyl])RAQDFVQWLV[PEG4′] [g676] |  | 40 nM |

| Binder | cAMP activity, GLP1 EC50 nM [1] | cAMP activity, Glcg EC50 nM [2] |
| --- | --- | --- |
| HSQGTFTSDYSKYLDSRRAQXFVQWLV (K(gE-palm) at 21; C-terminal PEG4) [g808] | 50 nM |  |
| HSQGTFTSDYSKYLDSK([PEG4′-γGlu-Palmitoyl])RARDFVAWLE[PEG2′] [g967] |  | 0.006 nM |
| HSQGTFTSDYSKYLDSXRAQDFVQWLV (not fully specified; K(PEG4-palm) at 17; C-terminal PEG6) [g438] | 0.005 nM | 0.002 nM |
| HSQGTFTSDYSKYLDSRRAQDFVQWLV (C-terminal PEG4) [g356] | 0.05 nM |  |
| HSQGTFTSDYSKYK([γGlu-Palmitoyl])DSRRAQDFVQWLV[PEG4′] [g426] |  | 0.003 nM |
| HSQGTFTSDYSKYK([γGlu-Palmitoyl])DEERAQDFVQWLV[PEG4′] [g807] |  | 0.01 nM |
| HSQGTFTSDYSKYLDSK([γGlu-Palmitoyl])RAQDFVQWEV[PEG4′] [g458] |  | 9 nM |
| HGQGTFTSDYSKYLDSXRAQDFVQWLV (K(gE-palm) at 17; C-terminal PEG4) [g430] |  | 0.8 nM |
| HSQGTFTSDYSKYLDSXRAQDFVQWLV (not fully specified; K(PEG4-gE-palm) at 17; C-terminal PEG4) [g964] |  | 0.002 nM |
| HSQGTFTSDYSKYLDSRKRAQDFVQWLV[PEG4′] (not fully specified (residue 18); printed as HSQGTFTSDYSKYLDSRB1RAQDFVQWLVZ4) [g415] | 0.007 nM | 0.002 nM |
| HSQGTFTSDYSKYLDK([γGlu-Palmitoyl])RRAQDFVQWEV[PEG4′] [g496] | 8 nM |  |
| HGQGTFTSDYSKYLDSXRAQDFVQWLV (not fully specified; K(PEG4-palm) at 17; C-terminal PEG4) [g431] | 0.006 nM | 0.004 nM |
| HSQGTFTSDYSKYLDSRRAQDFVQWLV (C-terminal PEG2) [g355] |  | 0.03 nM |
| HSQGTFTSDYSKYLDSXRAQDFVQWLV (not fully specified; K(PEG2-palm) at 17; C-terminal PEG4) [g435] | 0.01 nM | 0.002 nM |
| HGQGTFTSDYSEYLDSK([γGlu-Palmitoyl])RARDFVEWLV[PEG4′] [g677] | 0.3 nM |  |
| HGQGTFTSDYSKYLDSXRAQDFVQWLV (K(gE-palm) at 17; C-terminal PEG2) [g691] | 0.05 nM |  |
| HXQGTFTSDYSKYLDSXRAQDFVQWLV (alpha-amino-iso-butyric acid (Aib) at 2; K(PEG4-palm) at 17; C-terminal PEG4) [g501] | 0.03 nM | 0.003 nM |
| HGQGTFTSDYSKYLDSXRAQDFVQWLV (K(gE-palm) at 17; C-terminal PEG3) [g690] | 0.06 nM | 0.1 nM |
| HSQGTFTSDYSKYLDSXRAQDFVQWLV (not fully specified; K(PEG2-gE-palm) at 17; C-terminal PEG4) [g965] |  | 0.002 nM |
| HGQGTFTSDYSKYLDSXRAQDFVQWLV (K(gE-palm) at 17; C-terminal PEG6) [g692] | 0.06 nM |  |
| H[Aib]QGTFTSDYSKYLDSK([γGlu-Palmitoyl])RAQDFVAWLV[PEG4′] [g870] | 0.09 nM |  |
| HSEGTFTSDYSKYLDSKRAQDFVQWLV[PEG4′] (not fully specified (residue 17); printed as HSEGTFTSDYSKYLDSB1RAQDFVQWLVZ4) [g433] | 0.004 nM | 0.03 nM |
| HSQGTFTSDYSKYLDSXRAQDFVQWLV (not fully specified; K(PEG4-palm) at 17; C-terminal PEG2) [g437] | 0.006 nM | 0.002 nM |

— patent US20160017016A1 (AstraZeneca / MedImmune, published 2016)
